Measurements taken from the supplement of paper PMC9112550, “Optimization of the antimicrobial peptide Bac7 by deep mutational scanning” (BMC Biology, 2022).

These sequences were tested on Escherichia coli TOP10 (assay: shrunken log2 fold change of peptide-encoding DNA abundance (4.5 h post-induction vs induction); higher = less antimicrobial activity (less host growth inhibition)). Settings: time post-induction: 4.5 h; library: site-saturation at positions 5, 18, 19, 20.
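Note: peptides expressed intracellularly from a pBAD plasmid library in pooled LB shake-flask culture, induced with 0.3% L-arabinose, DNA abundance read by NGS, three biological replicates, DESeq2 with apeglm shrinkage.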

Row | Sequence | shrunken log2 fold change
1 | RRIRDRPPRLPRPRPRPYRTPRP | -0.0206
2 | RRIRDRPPRLPRPRPRPYSMPRP | -0.0516
3 | RRIRDRPPRLPRPRPRPYSPPRP | 0.0205
4 | RRIRDRPPRLPRPRPRPYSVPRP | -0.0716
5 | RRIRDRPPRLPRPRPRPYVCPRP | 0.0261
6 | RRIRDRPPRLPRPRPRPYVPPRP | -0.604
7 | RRIRDRPPRLPRPRPRPYYYPRP | -1.11
8 | RRIRERPPRLPRPRPRPAAKPRP | 0.0307
9 | RRIRERPPRLPRPRPRPACFPRP | 0.00624
10 | RRIRERPPRLPRPRPRPACKPRP | 0.104
11 | RRIRERPPRLPRPRPRPACLPRP | -0.0938
12 | RRIRERPPRLPRPRPRPACMPRP | -0.0379
13 | RRIRERPPRLPRPRPRPADPPRP | -0.35
14 | RRIRERPPRLPRPRPRPAFHPRP | -0.154
15 | RRIRERPPRLPRPRPRPAFYPRP | -0.32
16 | RRIRERPPRLPRPRPRPAGCPRP | -0.0935
17 | RRIRERPPRLPRPRPRPAGPPRP | -0.0342
18 | RRIRERPPRLPRPRPRPAHGPRP | 0.131
19 | RRIRERPPRLPRPRPRPAHVPRP | -0.0768
20 | RRIRERPPRLPRPRPRPALEPRP | 0.0291
21 | RRIRERPPRLPRPRPRPAMMPRP | -0.163
22 | RRIRERPPRLPRPRPRPAPCPRP | 0.0086
23 | RRIRERPPRLPRPRPRPAQYPRP | 0.0972
24 | RRIRERPPRLPRPRPRPARDPRP | 0.19
25 | RRIRERPPRLPRPRPRPAREPRP | 0.0588

Row | Sequence | shrunken log2 fold change
26 | RRIRERPPRLPRPRPRPARWPRP | 0.592
27 | RRIRERPPRLPRPRPRPASHPRP | -0.34
28 | RRIRERPPRLPRPRPRPASIPRP | -0.327
29 | RRIRERPPRLPRPRPRPAVCPRP | 0.086
30 | RRIRERPPRLPRPRPRPAVGPRP | 0.209
31 | RRIRERPPRLPRPRPRPAWMPRP | 0.501
32 | RRIRERPPRLPRPRPRPAWNPRP | 0.167
33 | RRIRERPPRLPRPRPRPCAGPRP | -0.0261
34 | RRIRERPPRLPRPRPRPCAIPRP | -0.15
35 | RRIRERPPRLPRPRPRPCARPRP | 0.0326
36 | RRIRERPPRLPRPRPRPCASPRP | -0.172
37 | RRIRERPPRLPRPRPRPCCDPRP | -0.362
38 | RRIRERPPRLPRPRPRPCFCPRP | -0.318
39 | RRIRERPPRLPRPRPRPCGFPRP | -0.303
40 | RRIRERPPRLPRPRPRPCGYPRP | -0.239
41 | RRIRERPPRLPRPRPRPCIMPRP | -0.397
42 | RRIRERPPRLPRPRPRPCINPRP | -0.0818
43 | RRIRERPPRLPRPRPRPCKFPRP | -0.214
44 | RRIRERPPRLPRPRPRPCLCPRP | -0.134
45 | RRIRERPPRLPRPRPRPCNMPRP | -0.101
46 | RRIRERPPRLPRPRPRPCNYPRP | -0.746
47 | RRIRERPPRLPRPRPRPCTGPRP | -0.264
48 | RRIRERPPRLPRPRPRPCWVPRP | -0.26
49 | RRIRERPPRLPRPRPRPDCSPRP | -0.148
50 | RRIRERPPRLPRPRPRPDCVPRP | -0.191

Row | Sequence | shrunken log2 fold change
51 | RRIRERPPRLPRPRPRPDEPPRP | -0.0946
52 | RRIRERPPRLPRPRPRPDEQPRP | -0.00815
53 | RRIRERPPRLPRPRPRPDFDPRP | -0.356
54 | RRIRERPPRLPRPRPRPDGGPRP | 0.0135
55 | RRIRERPPRLPRPRPRPDLHPRP | -0.262
56 | RRIRERPPRLPRPRPRPDMYPRP | -0.0361
57 | RRIRERPPRLPRPRPRPDQTPRP | -0.00664
58 | RRIRERPPRLPRPRPRPDRQPRP | -0.0719
59 | RRIRERPPRLPRPRPRPDWCPRP | 0.0337
60 | RRIRERPPRLPRPRPRPDWLPRP | 0.00866
61 | RRIRERPPRLPRPRPRPDWQPRP | -0.552
62 | RRIRERPPRLPRPRPRPEAHPRP | 0.201
63 | RRIRERPPRLPRPRPRPEALPRP | 0.0535
64 | RRIRERPPRLPRPRPRPEDAPRP | -0.079
65 | RRIRERPPRLPRPRPRPEDPPRP | -0.134
66 | RRIRERPPRLPRPRPRPEFVPRP | 0.137
67 | RRIRERPPRLPRPRPRPEGCPRP | -0.318
68 | RRIRERPPRLPRPRPRPEGFPRP | -0.00351
69 | RRIRERPPRLPRPRPRPEGQPRP | -0.015
70 | RRIRERPPRLPRPRPRPEHCPRP | -0.014
71 | RRIRERPPRLPRPRPRPEHHPRP | -0.543
72 | RRIRERPPRLPRPRPRPEHNPRP | -0.203
73 | RRIRERPPRLPRPRPRPEIRPRP | -0.163
74 | RRIRERPPRLPRPRPRPEKAPRP | -0.0229
75 | RRIRERPPRLPRPRPRPEKRPRP | -0.0657

Row | Sequence | shrunken log2 fold change
76 | RRIRERPPRLPRPRPRPELKPRP | 0.138
77 | RRIRERPPRLPRPRPRPELPPRP | -0.0646
78 | RRIRERPPRLPRPRPRPEMCPRP | -0.0143
79 | RRIRERPPRLPRPRPRPENIPRP | -0.227
80 | RRIRERPPRLPRPRPRPENYPRP | 2
81 | RRIRERPPRLPRPRPRPEPEPRP | 0.475
82 | RRIRERPPRLPRPRPRPEQCPRP | -0.0274
83 | RRIRERPPRLPRPRPRPERCPRP | 0.125
84 | RRIRERPPRLPRPRPRPERHPRP | -0.152
85 | RRIRERPPRLPRPRPRPESPPRP | 0.0699
86 | RRIRERPPRLPRPRPRPETPPRP | 0.784
87 | RRIRERPPRLPRPRPRPEVSPRP | 0.0769
88 | RRIRERPPRLPRPRPRPEVWPRP | 0.4
89 | RRIRERPPRLPRPRPRPEWDPRP | -0.105
90 | RRIRERPPRLPRPRPRPEYNPRP | -0.274
91 | RRIRERPPRLPRPRPRPFATPRP | 0.119
92 | RRIRERPPRLPRPRPRPFCTPRP | -0.304
93 | RRIRERPPRLPRPRPRPFDVPRP | -0.0685
94 | RRIRERPPRLPRPRPRPFFAPRP | 0.848
95 | RRIRERPPRLPRPRPRPFFSPRP | -0.358
96 | RRIRERPPRLPRPRPRPFLDPRP | -0.318
97 | RRIRERPPRLPRPRPRPFMMPRP | -0.584
98 | RRIRERPPRLPRPRPRPFMVPRP | -0.599
99 | RRIRERPPRLPRPRPRPFNSPRP | -0.225
100 | RRIRERPPRLPRPRPRPFNWPRP | 0.00763

Row | Sequence | shrunken log2 fold change
101 | RRIRERPPRLPRPRPRPFPAPRP | -0.0357
102 | RRIRERPPRLPRPRPRPFPWPRP | -0.0723
103 | RRIRERPPRLPRPRPRPFQAPRP | -0.215
104 | RRIRERPPRLPRPRPRPFQHPRP | -0.252
105 | RRIRERPPRLPRPRPRPFQWPRP | 0.0371
106 | RRIRERPPRLPRPRPRPFRNPRP | -0.105
107 | RRIRERPPRLPRPRPRPFSGPRP | -0.55
108 | RRIRERPPRLPRPRPRPFSQPRP | -0.347
109 | RRIRERPPRLPRPRPRPFTAPRP | -0.227
110 | RRIRERPPRLPRPRPRPFVKPRP | -0.0102
111 | RRIRERPPRLPRPRPRPFVRPRP | -0.146
112 | RRIRERPPRLPRPRPRPFVSPRP | 0.176
113 | RRIRERPPRLPRPRPRPFWDPRP | 0.029
114 | RRIRERPPRLPRPRPRPFWGPRP | 0.0105
115 | RRIRERPPRLPRPRPRPFWKPRP | -0.125
116 | RRIRERPPRLPRPRPRPFYCPRP | 0.0826
117 | RRIRERPPRLPRPRPRPFYMPRP | -0.167
118 | RRIRERPPRLPRPRPRPFYYPRP | -0.618
119 | RRIRERPPRLPRPRPRPGAAPRP | 1.82
120 | RRIRERPPRLPRPRPRPGAMPRP | 0.316
121 | RRIRERPPRLPRPRPRPGDHPRP | -0.0518
122 | RRIRERPPRLPRPRPRPGDQPRP | -0.0675
123 | RRIRERPPRLPRPRPRPGEVPRP | 0.0814
124 | RRIRERPPRLPRPRPRPGFYPRP | 0.057
125 | RRIRERPPRLPRPRPRPGGKPRP | -0.0276

Row | Sequence | shrunken log2 fold change
126 | RRIRERPPRLPRPRPRPGGMPRP | -0.02
127 | RRIRERPPRLPRPRPRPGHLPRP | -0.0138
128 | RRIRERPPRLPRPRPRPGHSPRP | -0.134
129 | RRIRERPPRLPRPRPRPGHVPRP | -0.00285
130 | RRIRERPPRLPRPRPRPGMHPRP | 0.0491
131 | RRIRERPPRLPRPRPRPGNHPRP | -0.141
132 | RRIRERPPRLPRPRPRPGNLPRP | -0.17
133 | RRIRERPPRLPRPRPRPGNVPRP | -0.197
134 | RRIRERPPRLPRPRPRPGQLPRP | -0.131
135 | RRIRERPPRLPRPRPRPGRCPRP | 0.0675
136 | RRIRERPPRLPRPRPRPGREPRP | 0.241
137 | RRIRERPPRLPRPRPRPGSQPRP | -0.196
138 | RRIRERPPRLPRPRPRPGSYPRP | -0.868
139 | RRIRERPPRLPRPRPRPGTLPRP | -0.251
140 | RRIRERPPRLPRPRPRPGWIPRP | -0.105
141 | RRIRERPPRLPRPRPRPGWWPRP | -0.0125
142 | RRIRERPPRLPRPRPRPGYKPRP | -0.11
143 | RRIRERPPRLPRPRPRPHAIPRP | -0.234
144 | RRIRERPPRLPRPRPRPHAWPRP | 0.146
145 | RRIRERPPRLPRPRPRPHCTPRP | -0.0432
146 | RRIRERPPRLPRPRPRPHDCPRP | -0.715
147 | RRIRERPPRLPRPRPRPHERPRP | -0.00965
148 | RRIRERPPRLPRPRPRPHGSPRP | -0.15
149 | RRIRERPPRLPRPRPRPHHAPRP | 0.0055
150 | RRIRERPPRLPRPRPRPHHNPRP | -0.817
